What all share (experiment): ELISA
One assay deals with T1, integrin αvβ5 (Homo sapiens, UniProt P06756).
T1 chain 1: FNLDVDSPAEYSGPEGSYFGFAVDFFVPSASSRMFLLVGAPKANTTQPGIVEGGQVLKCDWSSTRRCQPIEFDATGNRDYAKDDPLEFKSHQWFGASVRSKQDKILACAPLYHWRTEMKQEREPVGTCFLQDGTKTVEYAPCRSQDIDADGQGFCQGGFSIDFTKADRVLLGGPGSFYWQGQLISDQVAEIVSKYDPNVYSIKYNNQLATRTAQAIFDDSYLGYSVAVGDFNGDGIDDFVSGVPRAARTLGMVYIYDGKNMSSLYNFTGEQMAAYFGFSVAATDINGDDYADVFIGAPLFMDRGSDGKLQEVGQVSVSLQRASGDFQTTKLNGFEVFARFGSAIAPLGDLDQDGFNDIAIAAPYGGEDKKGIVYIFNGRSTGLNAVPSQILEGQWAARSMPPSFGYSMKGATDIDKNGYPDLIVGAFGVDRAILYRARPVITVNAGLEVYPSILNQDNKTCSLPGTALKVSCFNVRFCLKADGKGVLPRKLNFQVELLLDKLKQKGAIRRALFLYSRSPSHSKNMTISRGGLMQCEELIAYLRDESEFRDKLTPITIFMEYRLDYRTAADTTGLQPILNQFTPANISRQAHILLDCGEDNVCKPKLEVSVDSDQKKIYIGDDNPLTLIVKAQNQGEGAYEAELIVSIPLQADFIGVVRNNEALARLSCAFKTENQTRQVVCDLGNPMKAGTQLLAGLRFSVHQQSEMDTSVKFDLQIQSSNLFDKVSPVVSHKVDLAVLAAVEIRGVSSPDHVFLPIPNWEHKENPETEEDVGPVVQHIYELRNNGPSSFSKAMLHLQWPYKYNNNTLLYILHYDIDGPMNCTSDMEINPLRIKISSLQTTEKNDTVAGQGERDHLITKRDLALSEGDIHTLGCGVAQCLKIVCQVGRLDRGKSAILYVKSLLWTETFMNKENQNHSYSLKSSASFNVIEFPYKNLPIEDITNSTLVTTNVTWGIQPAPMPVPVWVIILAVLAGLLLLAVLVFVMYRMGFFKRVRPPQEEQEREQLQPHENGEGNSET
T1 chain 2: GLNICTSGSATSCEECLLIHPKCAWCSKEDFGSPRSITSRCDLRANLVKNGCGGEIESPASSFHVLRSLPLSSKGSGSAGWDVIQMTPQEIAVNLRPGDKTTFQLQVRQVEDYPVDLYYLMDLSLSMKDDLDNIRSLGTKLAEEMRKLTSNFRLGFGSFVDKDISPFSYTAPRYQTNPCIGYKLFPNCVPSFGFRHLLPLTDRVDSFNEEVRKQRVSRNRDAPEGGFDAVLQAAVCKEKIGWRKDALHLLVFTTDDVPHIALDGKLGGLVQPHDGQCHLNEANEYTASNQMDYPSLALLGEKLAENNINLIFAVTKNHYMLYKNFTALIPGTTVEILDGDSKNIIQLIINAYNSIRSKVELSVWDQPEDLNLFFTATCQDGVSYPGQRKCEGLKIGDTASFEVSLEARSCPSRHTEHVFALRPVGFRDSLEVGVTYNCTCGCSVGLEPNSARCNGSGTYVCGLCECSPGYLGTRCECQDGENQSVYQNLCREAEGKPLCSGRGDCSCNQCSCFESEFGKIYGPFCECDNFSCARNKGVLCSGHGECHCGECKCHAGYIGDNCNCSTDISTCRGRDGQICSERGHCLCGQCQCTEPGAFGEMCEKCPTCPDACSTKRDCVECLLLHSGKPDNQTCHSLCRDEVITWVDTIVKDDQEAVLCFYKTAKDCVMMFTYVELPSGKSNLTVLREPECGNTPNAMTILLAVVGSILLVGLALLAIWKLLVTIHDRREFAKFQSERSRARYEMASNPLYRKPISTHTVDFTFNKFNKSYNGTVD

The target of another assay is T2, integrin αvβ3 (Homo sapiens, UniProt P06756).
T2 chain 1: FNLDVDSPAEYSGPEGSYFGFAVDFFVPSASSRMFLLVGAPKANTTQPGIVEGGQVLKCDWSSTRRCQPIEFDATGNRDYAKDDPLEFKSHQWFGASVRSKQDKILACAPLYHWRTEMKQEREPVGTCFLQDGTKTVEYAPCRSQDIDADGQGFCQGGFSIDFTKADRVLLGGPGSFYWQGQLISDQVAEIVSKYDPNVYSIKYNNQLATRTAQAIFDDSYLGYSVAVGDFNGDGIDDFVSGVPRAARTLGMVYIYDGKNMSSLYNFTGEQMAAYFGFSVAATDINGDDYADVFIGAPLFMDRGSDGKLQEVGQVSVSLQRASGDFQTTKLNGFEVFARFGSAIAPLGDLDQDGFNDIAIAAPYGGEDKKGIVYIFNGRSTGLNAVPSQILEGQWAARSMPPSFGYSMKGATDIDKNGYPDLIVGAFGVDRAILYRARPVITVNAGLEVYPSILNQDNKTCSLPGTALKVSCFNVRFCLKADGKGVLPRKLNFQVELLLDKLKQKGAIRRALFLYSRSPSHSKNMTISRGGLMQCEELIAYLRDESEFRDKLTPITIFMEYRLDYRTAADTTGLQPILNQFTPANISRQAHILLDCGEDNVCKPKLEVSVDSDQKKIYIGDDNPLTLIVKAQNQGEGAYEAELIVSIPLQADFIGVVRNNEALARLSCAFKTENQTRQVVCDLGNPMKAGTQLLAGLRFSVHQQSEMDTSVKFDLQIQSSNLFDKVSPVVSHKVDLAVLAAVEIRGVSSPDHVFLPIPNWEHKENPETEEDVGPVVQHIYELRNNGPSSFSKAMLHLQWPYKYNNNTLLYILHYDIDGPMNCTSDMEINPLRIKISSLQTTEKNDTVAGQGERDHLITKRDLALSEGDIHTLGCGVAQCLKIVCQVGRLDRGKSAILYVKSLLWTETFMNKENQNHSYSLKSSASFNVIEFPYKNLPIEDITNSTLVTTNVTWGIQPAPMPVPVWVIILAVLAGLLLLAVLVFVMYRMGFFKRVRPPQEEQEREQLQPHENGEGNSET
T2 chain 2: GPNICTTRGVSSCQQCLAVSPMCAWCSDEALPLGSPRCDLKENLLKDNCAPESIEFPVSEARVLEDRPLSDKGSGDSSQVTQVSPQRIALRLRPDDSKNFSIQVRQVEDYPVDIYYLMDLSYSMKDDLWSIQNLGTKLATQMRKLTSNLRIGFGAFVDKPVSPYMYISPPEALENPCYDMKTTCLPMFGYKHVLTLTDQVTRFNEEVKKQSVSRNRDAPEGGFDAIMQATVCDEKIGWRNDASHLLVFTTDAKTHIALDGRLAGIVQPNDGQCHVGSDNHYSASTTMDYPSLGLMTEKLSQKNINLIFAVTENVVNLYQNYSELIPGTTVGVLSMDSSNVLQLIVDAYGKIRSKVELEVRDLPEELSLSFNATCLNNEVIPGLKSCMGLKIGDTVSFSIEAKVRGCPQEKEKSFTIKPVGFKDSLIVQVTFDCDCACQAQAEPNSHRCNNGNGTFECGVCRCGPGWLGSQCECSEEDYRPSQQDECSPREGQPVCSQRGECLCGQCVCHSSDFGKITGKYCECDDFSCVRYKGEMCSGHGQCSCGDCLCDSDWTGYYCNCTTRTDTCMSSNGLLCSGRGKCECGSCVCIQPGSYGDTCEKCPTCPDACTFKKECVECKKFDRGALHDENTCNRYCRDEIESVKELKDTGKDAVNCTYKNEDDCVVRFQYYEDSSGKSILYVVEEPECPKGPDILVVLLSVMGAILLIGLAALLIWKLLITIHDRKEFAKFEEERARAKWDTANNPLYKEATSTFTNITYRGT

In another assay the target is DR5 (Homo sapiens, UniProt O14763).

B1: DR5-B-iRGD 114-281 (protein)
chain: VRERGPQRVAAHITGTRGRSNTLSSPNSKNEKALGRKINSWESSRSGHSFLSNLHLRNGELVIHEKGFYYIYSQTNFKFREEIKENTKNDKQMVQYIYKYTSYPDPILLMKSARNSCWSKDAEYGLYSIYQGGIFELKENDRIFVSVTNERLLDMHHEASFFGAFLVG
The Kd is the concentration at which binding is half-saturated. Low readings indicate higher affinity, high ones lower affinity. Consider B1, for which the equilibrium dissociation constant (Kd) with integrin αvβ5 is 96.5 nM; with integrin αvβ3 it was 1.89 nM; with DR5, 1.66 nM.

B2: DR5-B 114-281 (protein)
chain: VRERGPQRVAAHITGTRGRSNTLSSPNSKNEKALGRKINSWESSRSGHSFLSNLHLRNGELVIHEKGFYYIYSQTNFKFREEIKENTKNDKQMVQYIYKYTSYPDPILLMKSARNSCWSKDAEYGLYSIYQGGIFELKENDRIFVSVTNERLLDMHHEASFFGAFLVG
Consider B2, for which the Kd in the assay with DR5 was 1.46 nM.
